Laboratory results taken from PMC3236778.
Each block holds one molecule with its values, some of them ahead of it.

Assays:
[1] = biological target: GkDnaC K309A mutant (Geobacillus kaustophilus HTA426); assay: SEC; size-exclusion column during purification; data not shown
[2] = biological target: GkDnaC R420A mutant (arginine finger) (Geobacillus kaustophilus HTA426); assay: as above
[3] = biological target: GkDnaC helicase, wild-type (replicative helicase of Geobacillus kaustophilus HTA426) (Geobacillus kaustophilus HTA426)
[4] = biological target: GkDnaC helicase, wild-type (replicative helicase of Geobacillus kaustophilus HTA426) (Geobacillus kaustophilus HTA426); assay: SEC; size-exclusion column during purification; data not shown

Molecule: GkDnaI helicase loader (natural protein)
ATPase activity of the GkDnaC-GkDnaI complex (NADH-coupled assay) [3]: 18.1 µM/min
unwinding efficiency (fold, against GkDnaC alone), gel shift assay of fork DNA unwinding [3]: 0.15 fold

Molecule: GkDnaC helicase, wild-type (replicative helicase of Geobacillus kaustophilus HTA426) (enzyme)
stoichiometry N [4]: 6

Now from value to molecule:

stoichiometry N [1]: 6
Molecule: GkDnaC K309A mutant (enzyme)

stoichiometry N [2]: 6
Molecule: GkDnaC R420A mutant (arginine finger) (enzyme)

ATPase activity of the GkDnaC-GkDnaG complex (NADH-coupled assay) [3]: 79.5 µM/min
unwinding efficiency (fold, against GkDnaC alone), gel shift assay of fork DNA unwinding [3]: 1.45 fold
unwinding velocity of the GkDnaC-GkDnaG complex (smTPM) [3]: 7.44 bp/s
B1: GkDnaG primase, full-length wild-type (enzyme)
chain: MGHRIPEETIEAIRRGVDIVDVIGEYVQLKKQGRNYFGLCPFHGEKTPSFSVSPEKQIFHCFGCGAGGNAFTFLMDIEGIPFVEAAKRLAAKAGIDLSAYELDSRGSDGSRADEAKAMVEAHTLLKRFYHHLLVHTKEGQAALDYLQVRGWTKETIDRFEIGYAPDVPDAAVRLLESRSFPLVLMEKAGLLVKKEDGRYVDRFRNRIMFPIHDHRGETVGFSGRLLGDGQPKYMNSPETPIFRKGTLLYFFHEARVSIRKRQEALLVEGFADVISAVQAGVDYVVATMGTSLTEEQARILRRHAETVTICYDGDSAGTEAAWRAAEQLSAFGCRVKVALLPDGLDPDEYIRTCGADRFAEEIAAARPLMAFKMDRLRRGKNLQEEGDRLRYIEEALREISKLSSPVEKDYYMRQLADEFSLSLSALYEQLSRSKPEQPKPQVNDGGKPVRPALTKKLLPAFQNAERLLLAHMMRSRDVAFIVQEQVGGRFNIEEHRALAAYIYAFYEEGHEADPSALMSRLPGELRTLASELSLLLVADDVSDRELADCIRHVLNHPKWLMLKEKEQEKTEAERRKDFLTAARIAKEMIEMKKMLSSS
